Data from publication PMC6212786 (Nucleic Acids Research, 2018).

T1: Full-length wild-type T4 DNA ligase (gp30) (bacteriophage T4, UniProt P00970 1-487)
T1 sequence (looked up): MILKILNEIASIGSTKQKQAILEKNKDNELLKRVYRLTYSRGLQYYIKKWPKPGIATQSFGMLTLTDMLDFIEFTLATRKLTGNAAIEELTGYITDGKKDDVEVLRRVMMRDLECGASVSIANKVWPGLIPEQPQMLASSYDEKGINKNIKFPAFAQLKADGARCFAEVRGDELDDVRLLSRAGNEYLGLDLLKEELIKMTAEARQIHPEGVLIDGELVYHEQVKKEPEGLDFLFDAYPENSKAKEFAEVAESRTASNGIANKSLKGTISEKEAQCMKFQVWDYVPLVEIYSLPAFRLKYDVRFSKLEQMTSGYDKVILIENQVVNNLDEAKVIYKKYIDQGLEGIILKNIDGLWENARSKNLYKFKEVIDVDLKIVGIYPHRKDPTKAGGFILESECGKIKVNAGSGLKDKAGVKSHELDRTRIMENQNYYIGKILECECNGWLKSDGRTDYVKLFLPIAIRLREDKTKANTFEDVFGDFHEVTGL

B1: T4 sliding clamp gp45, full length (trimer) (natural protein, bacteriophage T4, UniProt P04525 1-228, looked up)
chain: MKLSKDTTALLKNFATINSGIMLKSGQFIMTRAVNGTTYAEANISDVIDFDVAIYDLNGFLGILSLVNDDAEISQSEDGNIKIADARSTIFWPAADPSTVVAPNKPIPFPVASAVTEIKAEDLQQLLRVSRGLQIDTIAITVKEGKIVINGFNKVEDSALTRVKYSLTLGDYDGENTFNFIINMANMKMQPGNYKLLLWAKGKQGAAKFEGEHANYVVALEADSTHDF

Experiments:
[1] = molecular target: B1; assay: ITC
[2] = molecular target: T1, Full-length wild-type T4 DNA ligase …; assay: SEC

Binder	Kd [1] [µM]	stoichiometry N [1] [peptides per gp45 trimer]	binding result [2]
KKEPEGLDFLFDA [T4 ligase loop peptide KKEPEGLDFLFDA]	10.7	3	–
B1	–	–	binds
